Assay: yeast display, Sf9 membrane polyspecificity reagent, FACS + sequencing; frameworks hold sequencing errors
Outline: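 Polyreactivity labels are assigned by the sorting gate from which each nanobody was recovered. The gates were low and high (top ~1%), set on anti-HA fluorescence for expression and streptavidin fluorescence for reagent binding. Before sorting, galactose-induced (36–48 hours) yeast display cells were stained for 1 hour at 4 °C with 10% biotinylated, detergent-solubilized Sf9 membrane reagent.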

Row | Sequence | polyreactivity (PSR sort gate)
1 | QVQLVESGGGLVQAGGSLRLSCAASGRTFSRYTMGWYRQAPGKERELVAAISVNGGTTHYADSVKGRFTISRDNAKNTVYLQMNSLKPEDTAVYYCNARRRVGKYKYDYWGQGTQVTVSS | high polyreactivity
2 | QVQLVESGGGLVQAGGSLRLSCAASGRIFQYYAMGWYRQAPGKERELVAAISRGGSTNYADSVKGRFTISRDNAKNTVYCQMNSLIPVDTAVYYCAGDEYRYYFFRPGIGYDYWGQGTQVTVSS | low polyreactivity
3 | QVQLVESGGGLVQAGGSLRLSCAASGRTFTHYDMGWYRQAPGKERELVAAISSGCGTYYADSVKGRFTISRDNAKNTVYLQMNSLKPEDTAVYYCNADYTNYHDPFRTYGYWGQGTQVTVSS | low polyreactivity
4 | QVQLVESGGGLVQAGGGRRGSGAAAGSIFAWYAMGWYRQAPGTERELVATITWSGGSTYYADSVKGRFTISRDIAKNTVYLQMNSLKREDTAVYYCAAEVVGIWYDLWYQGDYWGQGTQVTVSS | low polyreactivity
5 | LVQHVESGGGLVKAGGSLRLTCSASGITFARYAMGWYRQAPGNERELVAAISRSVGSTYADSVKGRFTTSRDNAKNTVYLKMNSLKPEDTAVYYCHARYKSRLYPRYDYWGQGTQVTVSS | high polyreactivity
6 | QVQLVESGGGLVQAGGSLRLSCAASGLIVGGYTMGWYRQAPGKERDLVAAIDSADSTYYADSVKGRFTISRDNAKNTVYLQMNSLKPEDTAVYYCATYWFYSGPAFSLRETGGVNYWGQGTQVTVSS | low polyreactivity
7 | QVQLVESGGGLVQEGGSLRLSCAASGRTFYQYAMGWYRQAPGKERELVAVINGGGSTNYADSVKGRFTISRDNAKNTVYLQMNSLIPEDTAVYYCNADDVFDFDYWGQGTQVTVSS | low polyreactivity
8 | QVQLVESGGGLVQAGGSLRLSCAASGRTFADNAMGWYRQAPGKERELVASISSGTSTNYADSVKGRFTISRDNAKNTVYLQMNSLKPEDTAVYYCAADFSVYTEEDDSWGHGTQVTVSS | low polyreactivity
9 | QVQLVESGGGLVQAGGSLRLSCAASGSSFSSYAMGWYRQAPGKERELVASISRRGGSTYYADSVKGRFTISRDNAKNTGYLQMNSLNPEDTAVYYCNAPYAGMGYWGQGTQVTVSS | low polyreactivity
10 | QVQLVESGGGLVQAGGSIRLSCAASGSTYGTNTMGWSRQAPGKERELVAGITSGGNTNYADSVKGRFTISRDNAKNTVYLQMNSLKPEDSAVYYCAPRYIYYYAYGYNYWGQGTHVTVSS | high polyreactivity
11 | QVQLVESGGGLVQAGGSLRLSCAASGSIFPKNAMGWSRQAPGKVREFVATITKRGGRTYYADSVKGRFTISRDNAKNTVYLQMNSQKPEEPAVYYCARDQGKLVVPYDYWGQGTQLTVSS | high polyreactivity
12 | QVQLVESGGGLFQAGGSLRLSCAASGRTFRDYVMGWYRKATGKERELVAAISTRGASTYYADSVKGRFTISRDNAKNTVDLQMNSLKPEDTAVYYCAARSTRRGNEYDYWGQGTQVTGSS | high polyreactivity
13 | QVQLVESGGGLVQEGGSLRVSCAASGRTFRWYTMGWYRQAPGKEREFVAAITWSGSSTNYADSVKGRFTISRDNAKNTVYLQMNSLKPEDTAVYYCAGEKRRRRDDYWGQGTHVTVSS | high polyreactivity
14 | QVQLVESGGGLVQAGGSLRLSCAASGGILVFYAMGWYRQAPGKERELVAAINVSGGSTYYADSVKGRFTISRDNAKNTVYLQMNSLKPEDTAVYYCAALGPYLDYGVQYGYWGQGTQVTVSS | low polyreactivity
15 | QVQLVESGGGLVQAGGSLRLSCAASGSIFFPYAMGWYRQAPGKEREFVAAITGSGTSTYYADSVKGRFTISRDNAKNTVYLQMNSLKPEDTAVYYCNAKRDRYFYTVKYDYWGQGTQVTVSS | low polyreactivity
16 | QVQLVESGGGLVQAGGSLRLSFAASGRTFGTNGMGWYRQAPGKEREFVAAITWNGGGTYYADSVKGRFTISRDNAKNTVYLQMNSLKPEDTSVYYSAKRTRWNYKGYGTGGYYWGQGTQVTVSS | high polyreactivity
17 | QVQLVESGGGLVQAGGSLRLSCAASGSTFPVYVMGWYRQAPGKERELVATITIVVSTKYADSVKGRFTISRDNAKNTVYLQMNSLKPEDTAVYYCAKDDVYRDSYLVFDGEMDYWGQGTQVTVSS | low polyreactivity
18 | QVQIVESGGGLVQAGGILRLSCASSRSIFTVNTMGWYRQEHGKETELVAAINSRGGTTYYADSVKGRFTISRDNAKNTVYLQMISLKPEDTAFYYCAARTRIGLLYDYWGQGTQVTVSS | high polyreactivity
19 | QVQLVESGGGLVQAGGSLRLSCAASGSTFDRYAMGWYRQAPGKERELVAAITRGGSTYYADSVKGRFTISRDNAKNTVYLQMNSLKPEDTAVYYCAARYRAYVKLTSYDWGQGTQVTVSS | high polyreactivity
20 | QVQLVESGGGLVQAGGSLRLSCAASGSIFQWYAMGWYRQAPGQERELFAAITWSGDTTYYADSVKGRFTISRDNAKNTVYLQMNRLKPEDTAVYYCAADTQDRTYYGWRQVGGYDYWGQGTQVTVSS | low polyreactivity
21 | QVQLVESGGGLVQAGGSLRLSCAASGSTFPLNAMAWYRHAPGKERELVAAITWSGANTYYADSVKGRFTISRDNAKNTVYLQMNSLKPEDTAVYYCAAGSYAGFAVIGYYYWGQGTQVTVSS | low polyreactivity
22 | QVQLVESGGGLVQAGGSLRLSCDASGSTFNKYAMGWYRQAPGKERELVAAITTSGGRTTYADSVKGRFTISRDNAKNTVYVQMNSLKPEDTEVYYCAARYYIHRGYDYDYWGQGTQVSVSS | high polyreactivity

Row | Sequence | polyreactivity (PSR sort gate)
23 | QVQLVESGGGLVQAGGSLRLSCAASGSIFDGYAMGWYRQAPGKEREFVASIRFSTGRTYYADSVKGRFTISRDNAKNTVYLQMNSLKPEDTAVYYCNAPQGFVWRYSSWGPYDYWGQGTQVTVSS | high polyreactivity
24 | QVQLEESGGGLVQAGGSLRLSCGASGFTFRGYAMGWYIQAPGKERELVAAISKRGGSTYYADSVKGRFTISRDNAKNTVYLQMNSLKPEDTAVYYGAAEDTVYWGGVYYWTVYYWGQGTQVNVSS | high polyreactivity
25 | QVQLVESGGGLVQAGGSLRLSCAASGRTFSVNAMGWYRKAPGKERELVAAISWSTGSTYYADSVKGRFTISRDNAKNTVSLQMNSLKPEDTAVYYCAKLYEYRRSRYRTYGYWGQGTQVTVSS | high polyreactivity
26 | QVQLVESGGGLVQAGGSLRLSCAASGSIFYAYGMGWYRQAPGKERELVAAISSRGGSTHYADSVKGRFTISRDNAKNTVYLQMNSLKPEDTAVYYCAARHAYPYRRGDFNYWGQGTQVTVSS | high polyreactivity
27 | QVQLVESGGGLVQAGGSHRLSCAASGRIFSPYAMGWYRRAPGKERELVAAISYDDGITYYADSVKGRFTISRDNAKNTVYLQMNSLKPEDTAVYYCAADCVTRPAGDYWGQGTQVTVSS | low polyreactivity
28 | QVQLVESGGGLVQAGGSLRLSCAASGSTFAYNAMGWYRQAPGKERELVASISWTGGSTYYADSVKGRFTISRDNAKNTVYLQMNSLKPEDTAVYYCAVDWLEGYEFDSWGQGTQVTVSS | low polyreactivity
29 | QVQLVESGGGLVQAGGSLRLSCAASGSILFYNAMGWYRQAPGKERELVAAISSGGSTYYADSVKGRFTISRDNAKNTVYLQMNSLKPEDTAVYNCAARRRYSSVYYYYTTRRGYWGQGTQVTVSS | high polyreactivity
30 | QVQLVVSGGGLVQAGGSLRLSCAASGRTFSIYAMGWYRQAPWKERELVAAISWSGGRTYYADSVKGRFTISRDNAKNTVYLLMNSLKPEDTAVYYCNKDWIYRGYDYWGQGTQVTVSS | high polyreactivity
31 | QVQLVESGGGLVQAGGSLRLSCAASGSIFPHYAMGWYRQAPGKERELVATIRSRSGSTYYADSVKGRFTISRDNAKNTVYLQMNSLKPEDTAVYYCAKDNSLFQRDYWGQGTQVTVSS | low polyreactivity
32 | QVQLVESGGGLVQAGGSLRLSCADSGSTFLYYAIVWYRQAPGKERELVASITGSGSNTYYADSVKGRFTISRDNAKNTVYLQMNSLKPEDTAVYYCASDPQSDIPSWLWYWGEYDYWGQGTQVTVSS | low polyreactivity
33 | QVQLVESGGGLVQAGGSLRLICAASGNTFYRNAMGLYRQAPGKERELVAAIDYSAGSTYYADSVKWRFTISRDNAKYSVFFQMKSLNPEDTAVYYCAADARTSRGGRYYYWGQGTQVTVSS | low polyreactivity
34 | QVQLVESGGGLVQAGGRHRISCAASGLICVTYAMGWYRQAPGKERELVAVITASGDGTYYADSVKGRFTMSRDNAKNTVYLQMNSLKPEDSAVYSCAAGNMSQVGAIGKNTSQSDYWGQGTHVTVSS | low polyreactivity
35 | QVQLVESWGGLVQAGGSLRLSCAASGRIFYVYDMGWYRQAPGKERELVAAISWSGGSTSYADSVKGRFTISRDKAMYTVYLQMNSLKPEDTAVNYCAATSAIGWGYDYWGQGTQVNVSS | low polyreactivity
36 | QVQLVESGGGLVQAGGSLRLSCAASGRIVGRYAMGWYRQAPGKERELVAAISWSGGSTYYADSVKGRFTISRDNAKNTVYLQKNSLKPEDTAGYYCAADYDSYFRLYNYWGQGTQVTVSS | high polyreactivity
37 | QVQLVESGGGLVQAGGSLRLSCAASGSTFNGYVMGWYRQAPGKERELVAAISRSGGSTYYADSVKGRFTISRDNAKNNVYLQMYSLKPEDTAVYSCAKGGYQHYWGQGTQVTVSS | high polyreactivity
38 | QVQLVESGGGLVQAGGSLRLSCAASGLIFPRNAMGWYRQAPGKERELVAAITSGGGTNYADSVKWRFTISRDNAKNTVYLQMNSLIPEDTAVYYCAADYSVASPDGPYVIYDYWGQGTQVTVSS | low polyreactivity
39 | QVQLVESWGGLVQEGGSLRVSCAASGSIFSHYAMGRYRQAPGKEREFVAAIPRGVSTYYADSVKGRFTISRDNAKNTVYLLMNSLKPEYTGVYSCNKTYVRGVHGVYLPITSYDYWGQGTQVTVSS | low polyreactivity
40 | QVQLVESGGGLVQAGGSLRLSCAASGSTLSYNAMGWYRPATGKERELVAAISWSDGGTYYADSVKGRFTISRDNAKNTVYLQMNSLKPEDTAVYYCNAESQWSYYFIYDYWGQGTQVTVSS | high polyreactivity
41 | QVQLVESGGGLVQAGGSLRLSCAASGRIFGRYAMGWYRQAPGKERELVAVISSGGSTYYADSVKGRFTISRDNAKNTVYLQMNSLKREDTAVYYCAAVNRGGYDYWGQGTQVTVSS | low polyreactivity
42 | QVQLVESGGGLVQAGGSLRLSCAASGSTFFRNAMGWYRQAPGKERELVAAISKSGTSTYYADSVKGRFTISRDNAKNNVYLQMNSLKPEDTAVYYCAKYGFCYPQSYAYYYWGQGTQVTVSS | high polyreactivity
43 | QVQLVESGGGLVQAGGSLRLSCAASGFIFKPYAMGWYRQAPWKERELVAAITVNGGTTYYADSVKGRFTISRDNAKNTVYLQMNSLKPEDTAVYYCNRGRPGGPSWYHYDYWGQGTQVTVSS | high polyreactivity
